Data from PMC10094722, “How Single Amino Acid Substitutions Can Disrupt a Protein Hetero-Dimer Interface: Computational and Experimental Studies of the LigAB Dioxygenase from Sphingobium sp. Strain SYK-6” (International Journal of Molecular Sciences, 2023).
Changes are numbered by the printed parent chain. Names may count otherwise. “And” between values parts separate entries of the source, which are not always exact repeats. Equal values may be shown once.

Tests used:
LigA F103S = biological target: T1, LigA F103S (Sphingobium sp. strain SYK-6, UniProt P22635 1-139, F103S); assay: pull-down; co-purification of untagged LigB with His6-LigA on HisPur Ni-NTA resin from lysate of co-expressing E. coli, aerobic; 50 mM HEPES, 300 mM NaCl, pH 8.0, imidazole step gradient (62.5, 125, 250 mM); fractions on SDS-PAGE, Coomassie, quantified with ImageQuant; details: partners not purified
T1 construct: Protocatechuate 4,5-dioxygenase alpha chain (LigA), Sphingobium sp. strain SYK-6, with F103S; Site-directed mutagenesis as described by Barry et al; source: E. coli BL21, pET15b, co-expressed with LigB; in lysate and purified (Ni-NTA); not shown: His6, N-terminal, kept
T1 sequence: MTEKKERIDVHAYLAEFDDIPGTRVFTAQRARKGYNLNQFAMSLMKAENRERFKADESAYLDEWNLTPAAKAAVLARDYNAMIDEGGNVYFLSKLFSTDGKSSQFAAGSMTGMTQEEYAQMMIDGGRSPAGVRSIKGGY

LigA F103A = biological target: T2, LigA F103A (Sphingobium sp. strain SYK-6, UniProt P22635 1-139, F103A); assay: as above; details: partners not purified
T2 construct: Protocatechuate 4,5-dioxygenase alpha chain (LigA), Sphingobium sp. strain SYK-6, with F103A; Site-directed mutagenesis as described by Barry et al; also called F103α to alanine; source: E. coli BL21, pET15b, co-expressed with LigB; in lysate and purified (Ni-NTA); not shown: His6, N-terminal, kept
T2 sequence: T1 sequence with S103A

LigA F103H = biological target: T3, LigA F103H (Sphingobium sp. strain SYK-6, UniProt P22635 1-139, F103H); assay: as above; details: partners not purified
T3 construct: Protocatechuate 4,5-dioxygenase alpha chain (LigA), Sphingobium sp. strain SYK-6, with F103H; Site-directed mutagenesis as described by Barry et al; source: E. coli BL21, pET15b, co-expressed with LigB; in lysate; not shown: His6, N-terminal, kept
T3 sequence: T1 sequence with S103H

LigA F103V = biological target: T4, LigA F103V (Sphingobium sp. strain SYK-6, UniProt P22635 1-139, F103V); assay: as above; details: partners not purified
T4 construct: Protocatechuate 4,5-dioxygenase alpha chain (LigA), Sphingobium sp. strain SYK-6, with F103V; Site-directed mutagenesis as described by Barry et al; source: E. coli BL21, pET15b, co-expressed with LigB; in lysate; not shown: His6, N-terminal, kept
T4 sequence: T1 sequence with S103V

LigA F103L = biological target: T5, LigA F103L (Sphingobium sp. strain SYK-6, UniProt P22635 1-139, F103L); assay: as above; details: partners not purified
T5 construct: Protocatechuate 4,5-dioxygenase alpha chain (LigA), Sphingobium sp. strain SYK-6, with F103L; Site-directed mutagenesis as described by Barry et al; source: E. coli BL21, pET15b, co-expressed with LigB; in lysate; not shown: His6, N-terminal, kept
T5 sequence: T1 sequence with S103L

[1] = biological target: T6, LigA, alpha subunit of protocatechuate 4,5-dioxygenase (LigAB), wild-type (Sphingobium sp. strain SYK-6, UniProt P22635 1-139); assay: as above; details: partners not purified
T6 construct: Protocatechuate 4,5-dioxygenase alpha chain (LigA), Sphingobium sp. strain SYK-6; 17.711 kDa with the His6-tag; also called α subunit; source: E. coli BL21, pET15b, co-expressed with LigB; in lysate and purified (Ni-NTA); not shown: His6, N-terminal, kept
T6 sequence: T1 sequence with S103F

LigA F103T = biological target: T7, LigA F103T (Sphingobium sp. strain SYK-6, UniProt P22635 1-139, F103T); assay: as above; details: partners not purified
T7 construct: Protocatechuate 4,5-dioxygenase alpha chain (LigA), Sphingobium sp. strain SYK-6, with F103T; Site-directed mutagenesis as described by Barry et al; source: E. coli BL21, pET15b, co-expressed with LigB; in lysate; not shown: His6, N-terminal, kept
T7 sequence: T1 sequence with S103T

[2] = biological target: the molecule itself; assay: native gel or EMSA; 10% native polyacrylamide gel of purified LigAB (wild-type, F103A, F103S), Coomassie stained, 6.25 to 50 ug protein per lane; masses calculated from the bands

B1: LigB, beta subunit of protocatechuate 4,5-dioxygenase (LigAB) (natural protein, Sphingobium sp. strain SYK-6)
chain: MARVTTGITSSHIPALGAAIQTGTSDNDYWGPVFKGYQPIRDWIKQPGNMPDVVILVYNDHASAFDMNIIPTFAIGCAETFKPADEGWGPRPVPDVKGHPDLAWHIAQSLILDEFDMTIMNQMDVDHGCTVPLSMIFGEPEEWPCKVIPFPVNVVTYPPPSGKRCFALGDSIRAAVESFPEDLNVHVWGTGGMSHQLQGPRAGLINKEFDLNFIDKLISDPEELSKMPHIQYLRESGSEGVELVMWLIMRGALPEKVRDLYTFYHIPASNTALGAMILQPEETAGTPLEPRKVMSGHSLAQA
notes: Protocatechuate 4,5-dioxygenase beta chain (LigB), Sphingobium sp. strain SYK-6; 33.292 kDa; untagged; also called β subunit; source: E. coli BL21, pET15b, co-expressed with His6-LigA (wild-type or mutant); in lysate and co-purified (Ni-NTA)
- α:β ratio of abundances in elution fractions E3-1 to E3-5 (LigA F103S): 1.04
- β:α ratio of abundances in elution fractions E3-1 to E3-5 (LigA F103S): 0.959
- α:β ratio of abundances in elution fractions E3-1 to E3-5 (LigA F103A): 0.817
- β:α ratio of abundances in elution fractions E3-1 to E3-5 (LigA F103A): 1.22
- α:β ratio of abundances in elution fractions E3-1 to E3-5 (LigA F103H): 2.19
- β:α ratio of abundances in elution fractions E3-1 to E3-5 (LigA F103H): 0.456
- α:β ratio of abundances in elution fractions E3-1 to E3-5 (LigA F103V): 0.79
- β:α ratio of abundances in elution fractions E3-1 to E3-5 (LigA F103V): 1.27
- α:β ratio of abundances in elution fractions E3-1 to E3-5 (LigA F103L): 0.879
- β:α ratio of abundances in elution fractions E3-1 to E3-5 (LigA F103L): 1.14
- α:β ratio of abundances in elution fractions E3-1 to E3-5 [1]: 1.08
- β:α ratio of abundances in elution fractions E3-1 to E3-5 [1]: 0.928
- α:β ratio of abundances in elution fractions E3-1 to E3-5 (LigA F103T): 1.64
- β:α ratio of abundances in elution fractions E3-1 to E3-5 (LigA F103T): 0.608

B2: LigAB α/β heterodimer with LigA F103A (complex, Sphingobium sp. strain SYK-6)
chain 1: T1 sequence with S103A
chain 2: B1 chain
notes: Protocatechuate 4,5-dioxygenase alpha chain (LigA), Sphingobium sp. strain SYK-6, with F103A; as m3; Protocatechuate 4,5-dioxygenase beta chain (LigB), Sphingobium sp. strain SYK-6; as m2; The heterodimer as the unit that associates with itself in the native gel; also called F103A mutant enzyme; source: E. coli BL21, pET15b, co-expressed, purified (Ni-NTA); not shown: His6, N-terminal, kept
- binding result [2]: binds

B3: LigAB α/β heterodimer, wild-type (protocatechuate 4,5-dioxygenase) (complex, Sphingobium sp. strain SYK-6)
chain 1: T1 sequence with S103F
chain 2: B1 chain
notes: Protocatechuate 4,5-dioxygenase alpha chain (LigA), Sphingobium sp. strain SYK-6; as m1; Protocatechuate 4,5-dioxygenase beta chain (LigB), Sphingobium sp. strain SYK-6; as m2; The heterodimer as the unit that associates with itself in the native gel; also called wild-type LigAB; WT-LigAB; source: E. coli BL21, pET15b, co-expressed, purified (Ni-NTA); not shown: His6, N-terminal, kept
- stoichiometry N [2]: 3

B4: LigAB α/β heterodimer with LigA F103S (complex, Sphingobium sp. strain SYK-6)
chain 1: T1 sequence
chain 2: B1 chain
notes: Protocatechuate 4,5-dioxygenase alpha chain (LigA), Sphingobium sp. strain SYK-6, with F103S; as m6; Protocatechuate 4,5-dioxygenase beta chain (LigB), Sphingobium sp. strain SYK-6; as m2; The heterodimer as the unit that associates with itself in the native gel; also called F103S variant; source: E. coli BL21, pET15b, co-expressed, purified (Ni-NTA); not shown: His6, N-terminal, kept
- stoichiometry N [2]: 3 and 6
